From patent US11925667B2, “Engineered therapeutic probiotic system and method” (priority 2018, dated 2024)

B1: Armoracia rusticana myrosinase I1, SEQ ID NO: 6 (Armoracia rusticana) (protein)
chain: QNVCNPACKAKEPFNCDNTLTFNQTGFPKNFTFGAATSAYQIEGAAHRALNGWDYFTHRYPEKVPDRSSGDLACDSYDLYKDDVKLLKRMNVQAYRLSIAWSRVLPKGRLIGGVDENGITYYNNLINELKANGIEPYVTIFHWDVPQTLEDEYGGFLSPRIVEDFTNFAELLFQRFGDRVKFWITLNQPYSLATKGYGDGSYPPGRCTDCEFGGDSGTEPYIVAHHQLLAHAETVSLYRKRYQKFQGGKIGTTLIGRWFQPLNQTSNLDKAAAKRAFDFFVGWFLDPLVYGEYPKIMKEMVGDRMPKFTPQESDLVKGSLDFLGLNYYVTQYATDAPPSIPTQPSAITDPRVTLGYYRNGIPIGVQAASFVYYPTGFRQILNHIKDNYKNPLTYITENGVADFGNLTLANALADIGRIQNHCSHLSCLKCAIADGCNVGGYFAWSFMDNYEFGNGYTLRFGMNWVNFTNPADRKQKDSGKWFSKFLAK
notes: elsewhere used as YebF-I1 fusion
B2: Brevicoryne brassicae myrosinase BMY1 (Brevicoryne brassicae) (protein)
chain: MDYKFPKDFMFGTSTASYQIEGGWNEDGKGENIWDRLVHTSPEVIKDGTNGDIACDSYHKYKEDVAIIKDLNLKFYRFSISWARIAPSGVMNSLEPKGIAYYNNLINELIKNDIIPLVTMYHWDLPQYLQDLGGWVNPIMSDYFKEYARVLFTYFGDRVKWWITFNEPIAVCKGYSIKAYAPNLNLKTTGHYLAGHTQLIAHGKAYRLYEEMFKPTQNGKISISISGVFFMPKNAESDDDIETAERANQFERGWFGHPVYKGDYPPIMKKWVDQKSKEEGLPWSKLPKFTKDEIKLLKGTADFYALNHYSSRLVTFGSDPNPNFNPDASYVTSVDEAWLKPNETPYIIPVPEGLRKLLIWLKNEYGNPQLLITENGYGDDGQLDDFEKISYLKNYLNATLQAMYEDKCNVIGYTVWSLLDNFEWFYGYSIHFGLVKIDFNDPQRTRTKRESYTYFKNVVSTGKP

How the values were obtained:
[1] = substrate: C=CC/C(=N/OS(=O)(=O)O)S[C@@H]1O[C@H](CO)[C@@H](O)[C@H](O)[C@H]1O; assay: Myrosinase activity assay (glucose release from sinigrin hydrolysis), I1; format: biochemical, Armoracia rusticana
Description: In a preferred embodiment, the myrosinases derived from Armoracia rusticana (I1) and Brassica oleacea (A6) have a better stability and catalytic efficiency in various temperatures and pH values when compared with those derived from BMY1 and TGG1 (Table 1). In a preferred illustrative embodiment I1 myrosinase is selected owing to its Km value and improved kcat at the colorectal ambient temperature and pH (FIG. 2c, 2d and Table 1). By comparing the modeled-I1 myrosinase protein structure against that of the BMY1 myrosinase, the critical side chain residues involved in glucose-ring recognition and the glutamic acid that served as a nucleophile during catalysis are conserved. According to the claimed invention the improved catalytic efficiency of the I1 myrosinase is correlated to its pI value (pI=7.90) and the overall positively charged surface (FIG. 8) that contributes to better structural stability.
(§1) Gene cloning, protein expression and purification. Myrosinase genes are optimized for E. coli expression and cloned into the pET28b expression vector. The plasmids are transformed into E. coli BL21 (DE3) cultured in lysogeny broth (LB) (BD, Le Pont de Claix, France) at 37° C., 225 rpm to OD600 0.6 followed by 0.5 mM isopropyl β-D-1-thiogalactopyranoside (IPTG) induction at 16° C., 180 rpm for 16 hours. Cells are harvested, resuspended in lysis buffer (50 mM Tris-Cl, 300 mM NaCl, 10% glycerol, 1 mM dithiothreitol [DTT], pH 8.0) and lysed using Emulsiflex C-3 (Avestin). Expressed myrosinases are purified by IMAC Ni-NTA purification followed by Hi-Load Superdex 200 size exclusion column chromatography (GE, Uppsala, Sweden). The purified protein is concentrated and stored at −80° C. Pilot scale protein purification and enzymatic assay is conducted.
(§2) Myrosinase screening assay. The enzymatic reaction is measured for the release of glucose resulting from sinigrin hydrolysis. The reaction is conducted in sodium phosphate-buffered solution supplied in the Amplex® Red Glucose/Glucose Oxidase Assay Kit (Thermo Fisher Scientific, Geel, Belgium). The reaction buffer is prepared at different pH values (6.0, 6.5, 7.4 and 8.0) and at different reaction temperatures (34° C., 37° C., and 40° C.). The reaction is prepared using 0.1 μM purified myrosinase added to 1× Amplex® Red Glucose Assay reaction mixture and was kick-started with the corresponding concentration of sinigrin. The reaction can be measured at 560 nm absorbance and fluorescence (λex=540 nm, λem=590 nm) using a Synergy H1 Multi-Mode microtiter plate reader (BioTek®, Winooski, USA). The reaction initial velocity (VO) is determined and fitted into a Michaelis-Menten curve. Vmax and KM are determined by fitting into the Michaelis-Menten equation (Eq. 1) using GraphPad Prism Software. ^v=Vmax*[Sinigrin]/(KM+[Sinigrin]) (Eq.1)
(§3) Table S1|Myrosinase activity assay screening under various pH and temperature conditions (n=3 independent experiments, each measurement performed in triplicates; mean[…].).

[2] = substrate: C=CC/C(=N/OS(=O)(=O)O)S[C@@H]1O[C@H](CO)[C@@H](O)[C@H](O)[C@H]1O; assay: Myrosinase activity assay (glucose release from sinigrin hydrolysis), BMY1; format: biochemical, Brevicoryne brassicae
Procedure: Screening for improved β-thioglucosidase. The activity and stability of myrosinase, a β-thioglucosidase that hydrolyzes glucosinolate to sulforaphane, varies at differing pH and temperature; in a preferred embodiment the selected enzyme needs to function under physiological colorectal conditions. The healthy colon pH averages 6.6, while it is 7.0 and 6.7 in patients with adenoma and carcinoma, respectively. In addition, the temperature of the human intestinal tract ranges from 36° C. to 40° C. depending on the individual's metabolic state. In the illustrative example five plant-derived myrosinase orthologues with minimal glycosylation sites and the absence of the co-factor-binding sites using the BLAST search and the Enzyme Function Initiative-Enzyme Similarity Tool (EFI-EST), are compared to the well-characterized myrosinases from Brevicoryne brassicae (BMY1) and Arabidopsis thaliana (TGG1) (FIG. 2a and FIG. 7).
as §1, §2, §3

[3] = other: pH 6.0, 37° C., pH 6.0, 37.0 °C
[4] = other: pH 6.5, 37° C., pH 6.5, 37.0 °C
[5] = other: pH 7.4, 34° C., pH 7.4, 34.0 °C
[6] = other: pH 7.4, 37° C., pH 7.4, 37.0 °C
[7] = other: pH 7.4, 40° C., pH 7.4, 40.0 °C
[8] = other: pH 8.0, 37° C., pH 8.0, 37.0 °C

Row | Protein | Km [1, 3] [µM] | Km [1, 4] [µM] | Km [1, 5] [µM] | Km [1, 6] [µM] | Km [1, 7] [µM] | Km [1, 8] [µM] | Km [2, 3] [µM] | Km [2, 4] [µM] | Km [2, 5] [µM] | Km [2, 6] [µM] | Km [2, 7] [µM] | Km [2, 8] [µM]
1 | B1 | 192 ± 40 | 183 ± 19 | 49 ± 4 | 87 ± 7 | 87 ± 9 | 192 ± 17 | – | – | – | – | – | –
2 | B2 | – | – | – | – | – | – | 153 ± 17 | 399 ± 86 | 76 ± 6 | 67 ± 1 | 342 ± 67 | 217 ± 87
